# Assay results reported in article PMC10421740, “A universal deep-learning model for zinc finger design enables transcription factor reprogramming”.
# T1: ZFN pair 12BC_selected + 12ED_selected (synthetic construct, UniProt P14870;P14870 384-579;384-579)
# T1 chain 1: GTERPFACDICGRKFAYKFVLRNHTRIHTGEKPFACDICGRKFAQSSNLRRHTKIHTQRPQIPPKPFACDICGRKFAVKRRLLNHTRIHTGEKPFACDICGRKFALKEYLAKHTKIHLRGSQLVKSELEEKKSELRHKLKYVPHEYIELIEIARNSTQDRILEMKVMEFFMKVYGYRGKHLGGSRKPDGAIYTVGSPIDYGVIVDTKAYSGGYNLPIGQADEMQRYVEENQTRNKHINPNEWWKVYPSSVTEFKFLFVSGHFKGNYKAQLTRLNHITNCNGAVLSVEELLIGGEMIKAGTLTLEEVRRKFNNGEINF
# T1 chain 2: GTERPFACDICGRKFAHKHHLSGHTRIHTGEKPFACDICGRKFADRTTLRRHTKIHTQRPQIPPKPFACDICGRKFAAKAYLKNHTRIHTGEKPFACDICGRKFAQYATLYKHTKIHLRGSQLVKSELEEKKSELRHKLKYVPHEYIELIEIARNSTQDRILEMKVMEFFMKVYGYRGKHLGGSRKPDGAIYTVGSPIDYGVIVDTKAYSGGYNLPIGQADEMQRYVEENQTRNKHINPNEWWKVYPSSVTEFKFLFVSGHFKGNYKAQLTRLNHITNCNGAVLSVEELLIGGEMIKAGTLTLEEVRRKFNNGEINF
# T2: KLF6 reprogrammed with array CDKN1C_200 (synthetic construct, UniProt Q99612 1-199)
# T2 chain: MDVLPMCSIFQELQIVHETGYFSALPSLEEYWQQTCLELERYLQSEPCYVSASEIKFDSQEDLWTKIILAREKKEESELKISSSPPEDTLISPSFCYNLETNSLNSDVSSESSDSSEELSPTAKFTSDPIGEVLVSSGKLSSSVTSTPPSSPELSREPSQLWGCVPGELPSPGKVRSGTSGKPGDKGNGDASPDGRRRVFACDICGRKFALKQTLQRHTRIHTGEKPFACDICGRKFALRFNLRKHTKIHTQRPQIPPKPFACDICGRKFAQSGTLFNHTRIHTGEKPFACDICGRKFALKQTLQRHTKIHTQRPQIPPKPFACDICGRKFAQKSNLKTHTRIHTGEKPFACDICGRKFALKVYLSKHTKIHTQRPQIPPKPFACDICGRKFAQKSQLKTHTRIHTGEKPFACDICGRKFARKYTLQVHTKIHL
# T3: KLF6 reprogrammed with array CDKN1C_200 F3-8 (synthetic construct, UniProt Q99612 1-199)
# T3 chain: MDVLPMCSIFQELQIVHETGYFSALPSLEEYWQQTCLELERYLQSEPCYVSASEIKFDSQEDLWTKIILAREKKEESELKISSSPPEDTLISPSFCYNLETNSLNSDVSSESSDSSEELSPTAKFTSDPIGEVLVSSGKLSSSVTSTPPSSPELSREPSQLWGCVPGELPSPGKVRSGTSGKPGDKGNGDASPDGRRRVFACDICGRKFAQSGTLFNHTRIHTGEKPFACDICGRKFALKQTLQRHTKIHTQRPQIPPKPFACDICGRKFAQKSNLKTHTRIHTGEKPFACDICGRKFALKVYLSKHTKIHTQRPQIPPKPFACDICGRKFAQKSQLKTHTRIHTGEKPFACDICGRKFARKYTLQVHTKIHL
# T4: KLF6 reprogrammed with array CDKN1C_200 8Q (synthetic construct, UniProt Q99612 1-199)
# T4 chain: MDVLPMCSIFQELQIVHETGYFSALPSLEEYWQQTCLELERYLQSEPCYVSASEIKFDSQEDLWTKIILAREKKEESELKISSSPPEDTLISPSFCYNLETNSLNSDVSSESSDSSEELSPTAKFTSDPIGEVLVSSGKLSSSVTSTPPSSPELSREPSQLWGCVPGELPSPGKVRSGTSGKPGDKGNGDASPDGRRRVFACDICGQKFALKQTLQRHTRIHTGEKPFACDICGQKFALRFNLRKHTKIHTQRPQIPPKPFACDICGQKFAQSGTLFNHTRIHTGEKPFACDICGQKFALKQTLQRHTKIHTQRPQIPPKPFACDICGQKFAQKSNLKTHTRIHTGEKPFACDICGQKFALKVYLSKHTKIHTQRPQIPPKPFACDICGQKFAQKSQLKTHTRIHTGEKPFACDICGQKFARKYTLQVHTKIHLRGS
# Legend:
# [1] = molecular target: ZIM3 reprogrammed with array UBE4A T1F8 (synthetic construct, UniProt Q96PE6 1-166); experiment: Zn; HEK293T, RT-qPCR 3 days after transfection
# Sequence of ZIM3 reprogrammed with array UBE4A T1F8 (Q96PE6 other isoform, or with tags, fused parts or gaps): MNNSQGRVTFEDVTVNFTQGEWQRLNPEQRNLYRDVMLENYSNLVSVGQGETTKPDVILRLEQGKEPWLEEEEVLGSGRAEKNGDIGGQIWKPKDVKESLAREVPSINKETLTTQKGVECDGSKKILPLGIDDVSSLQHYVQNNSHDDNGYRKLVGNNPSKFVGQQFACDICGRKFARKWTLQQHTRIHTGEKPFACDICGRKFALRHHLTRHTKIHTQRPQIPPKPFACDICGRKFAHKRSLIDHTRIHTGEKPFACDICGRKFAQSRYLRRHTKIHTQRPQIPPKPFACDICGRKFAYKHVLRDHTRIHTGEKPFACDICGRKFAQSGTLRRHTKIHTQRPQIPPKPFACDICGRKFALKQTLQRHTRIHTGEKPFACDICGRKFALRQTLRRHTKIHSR
# [2] = molecular target: ZFN pair 18BC_designed + 18ED_designed (synthetic construct, UniProt P14870;P14870 384-579;384-579); experiment: Zn; U2OS eGFP disruption, 3 days after nucleofection; settings: tags: N-terminal 3xFLAG and SV40 NLS (kept in the assay, left out here); copies: 1;1
# [3] = molecular target: ZFN pair 18BC_selected + 18ED_selected (synthetic construct, UniProt P14870;P14870 384-579;384-579); experiment: as above; settings: tags: N-terminal 3xFLAG and SV40 NLS (kept in the assay, left out here); copies: 1;1
# [4] = molecular target: ZIM3 reprogrammed with array DPH1TSSR (synthetic construct, UniProt Q96PE6 1-166); experiment: Zn; HEK293T, RT-qPCR 3 days after transfection
# Sequence of ZIM3 reprogrammed with array DPH1TSSR (Q96PE6 other isoform, or with tags, fused parts or gaps): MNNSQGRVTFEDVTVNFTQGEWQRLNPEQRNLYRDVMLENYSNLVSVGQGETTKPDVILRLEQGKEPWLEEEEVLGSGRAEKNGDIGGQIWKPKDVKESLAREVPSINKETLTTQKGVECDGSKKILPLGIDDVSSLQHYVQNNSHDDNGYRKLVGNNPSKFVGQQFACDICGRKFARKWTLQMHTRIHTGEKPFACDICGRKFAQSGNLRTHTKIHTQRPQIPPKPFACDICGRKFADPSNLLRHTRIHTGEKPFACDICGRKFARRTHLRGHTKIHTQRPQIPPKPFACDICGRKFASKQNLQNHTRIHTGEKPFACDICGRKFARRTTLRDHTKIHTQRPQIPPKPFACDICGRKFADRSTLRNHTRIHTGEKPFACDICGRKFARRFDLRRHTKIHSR
# array CDKN1C 125RC = array CDKN1C 125RC (synthetic construct); experiment: Zn; HEK293T, RNA-seq; settings: tags: N-terminal SV40 NLS, C-terminal GS linker + VP64 (left out)
# Sequence of array CDKN1C 125RC (synthetic construct) (chain, as listed by the source): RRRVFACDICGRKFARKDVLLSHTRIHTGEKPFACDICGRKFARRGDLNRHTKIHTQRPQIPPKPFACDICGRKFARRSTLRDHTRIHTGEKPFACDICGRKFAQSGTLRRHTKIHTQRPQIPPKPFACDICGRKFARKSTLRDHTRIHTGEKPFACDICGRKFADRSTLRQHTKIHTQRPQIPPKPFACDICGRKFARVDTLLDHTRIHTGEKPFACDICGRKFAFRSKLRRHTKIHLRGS
# [5] = molecular target: ZFN pair 10BC_selected + 10ED_selected (synthetic construct, UniProt P14870;P14870 384-579;384-579); experiment: Zn; U2OS eGFP disruption, 3 days after nucleofection; settings: tags: N-terminal 3xFLAG and SV40 NLS (kept in the assay, left out here); copies: 1;1
# [6] = molecular target: ZFN pair 10BC_substituted + 10ED_substituted (synthetic construct, UniProt P14870;P14870 384-579;384-579); experiment: as above; settings: tags: N-terminal 3xFLAG and SV40 NLS (kept in the assay, left out here); copies: 1;1
# [7] = molecular target: ZFN pair 10BC_designed + 10ED_designed (synthetic construct, UniProt P14870;P14870 384-579;384-579); experiment: as above; settings: tags: N-terminal 3xFLAG and SV40 NLS (kept in the assay, left out here); copies: 1;1
# [8] = molecular target: ZIM3 reprogrammed with array UBE4A T1R8 (synthetic construct, UniProt Q96PE6 1-166); experiment: Zn; HEK293T, RT-qPCR 3 days after transfection
# Sequence of ZIM3 reprogrammed with array UBE4A T1R8 (Q96PE6 other isoform, or with tags, fused parts or gaps): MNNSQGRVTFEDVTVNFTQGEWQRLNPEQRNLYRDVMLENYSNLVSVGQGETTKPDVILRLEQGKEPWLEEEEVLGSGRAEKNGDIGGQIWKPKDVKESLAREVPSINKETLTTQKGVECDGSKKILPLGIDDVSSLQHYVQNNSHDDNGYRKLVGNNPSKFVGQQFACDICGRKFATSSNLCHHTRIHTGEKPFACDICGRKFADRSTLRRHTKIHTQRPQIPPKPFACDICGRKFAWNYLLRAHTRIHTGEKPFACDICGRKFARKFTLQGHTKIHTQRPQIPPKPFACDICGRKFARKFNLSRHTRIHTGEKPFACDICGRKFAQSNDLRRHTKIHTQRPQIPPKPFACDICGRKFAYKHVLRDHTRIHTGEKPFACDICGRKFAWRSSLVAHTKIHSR
# [9] = molecular target: ZIM3 reprogrammed with array DPH1T2F8 (synthetic construct, UniProt Q96PE6 1-166); experiment: Zn; HEK293T, RT-qPCR 3 days after transfection
# Sequence of ZIM3 reprogrammed with array DPH1T2F8 (Q96PE6 other isoform, or with tags, fused parts or gaps): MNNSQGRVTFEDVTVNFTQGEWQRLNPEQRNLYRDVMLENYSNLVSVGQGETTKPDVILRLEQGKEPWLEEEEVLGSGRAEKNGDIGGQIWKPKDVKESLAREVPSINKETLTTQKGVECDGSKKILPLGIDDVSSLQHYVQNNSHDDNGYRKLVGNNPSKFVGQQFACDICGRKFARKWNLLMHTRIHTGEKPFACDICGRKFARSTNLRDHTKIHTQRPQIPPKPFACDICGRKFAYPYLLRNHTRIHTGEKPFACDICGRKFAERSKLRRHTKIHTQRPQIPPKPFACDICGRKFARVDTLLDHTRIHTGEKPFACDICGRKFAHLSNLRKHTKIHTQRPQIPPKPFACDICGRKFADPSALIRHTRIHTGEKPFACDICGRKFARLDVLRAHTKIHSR
# [10] = molecular target: T1, ZFN pair 12BC_selected + 12ED_selected; experiment: Zn; U2OS eGFP disruption, 3 days after nucleofection; settings: tags: N-terminal 3xFLAG and SV40 NLS (kept in the assay, left out here); copies: 1;1
# [11] = molecular target: ZFN pair 12BC_designed + 12ED_designed (synthetic construct, UniProt P14870;P14870 384-579;384-579); experiment: as above; settings: tags: N-terminal 3xFLAG and SV40 NLS (kept in the assay, left out here); copies: 1;1
# [12] = molecular target: ZFN pair 12BC_substituted + 12ED_substituted (synthetic construct, UniProt P14870;P14870 384-579;384-579); experiment: as above; settings: tags: N-terminal 3xFLAG and SV40 NLS (kept in the assay, left out here); copies: 1;1
# [13] = molecular target: T2, KLF6 reprogrammed with array CDKN1C_200; experiment: Zn; HEK293T, RT-qPCR 3 days after transfection
# [14] = molecular target: T3, KLF6 reprogrammed with array CDKN1C_200 …; experiment: Zn; HEK293T, RT-qPCR 3 days after transfection
# [15] = molecular target: T4, KLF6 reprogrammed with array CDKN1C_200 …; experiment: Zn; HEK293T, RT-qPCR 3 days after transfection; settings: tags: C-terminal linker + 3xFLAG (left out)
# [16] = molecular target: ZIM3 reprogrammed with array Rab1a T2R8 (synthetic construct, UniProt Q96PE6 1-166); experiment: Zn; HEK293T, RT-qPCR 3 days after transfection
# Sequence of ZIM3 reprogrammed with array Rab1a T2R8 (Q96PE6 other isoform, or with tags, fused parts or gaps): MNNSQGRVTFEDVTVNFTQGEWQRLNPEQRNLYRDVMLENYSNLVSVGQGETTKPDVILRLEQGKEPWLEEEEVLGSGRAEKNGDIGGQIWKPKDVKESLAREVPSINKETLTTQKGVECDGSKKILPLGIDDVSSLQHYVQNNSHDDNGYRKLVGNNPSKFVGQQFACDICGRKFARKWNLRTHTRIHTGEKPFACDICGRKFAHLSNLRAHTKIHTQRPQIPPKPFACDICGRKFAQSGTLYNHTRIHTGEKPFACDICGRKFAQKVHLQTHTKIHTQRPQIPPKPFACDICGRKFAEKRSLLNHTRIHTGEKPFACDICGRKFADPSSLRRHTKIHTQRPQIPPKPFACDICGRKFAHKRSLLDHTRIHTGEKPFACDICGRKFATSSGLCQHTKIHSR
# [17] = molecular target: ZIM3 reprogrammed with array DPH1T2R8 (synthetic construct, UniProt Q96PE6 1-166); experiment: Zn; HEK293T, RT-qPCR 3 days after transfection
# Sequence of ZIM3 reprogrammed with array DPH1T2R8 (Q96PE6 other isoform, or with tags, fused parts or gaps): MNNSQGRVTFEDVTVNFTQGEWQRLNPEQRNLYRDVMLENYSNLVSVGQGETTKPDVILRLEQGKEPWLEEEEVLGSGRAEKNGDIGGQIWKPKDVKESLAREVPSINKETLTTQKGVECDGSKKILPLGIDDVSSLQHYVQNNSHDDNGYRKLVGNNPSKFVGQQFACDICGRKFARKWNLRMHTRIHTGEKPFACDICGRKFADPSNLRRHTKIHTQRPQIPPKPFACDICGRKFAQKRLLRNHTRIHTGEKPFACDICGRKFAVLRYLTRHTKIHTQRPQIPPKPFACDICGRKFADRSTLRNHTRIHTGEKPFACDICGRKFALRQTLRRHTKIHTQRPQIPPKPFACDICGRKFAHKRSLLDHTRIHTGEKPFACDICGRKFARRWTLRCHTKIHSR
# [18] = molecular target: ZIM3 reprogrammed with array DPH1_15 F3-8 (synthetic construct, UniProt Q96PE6 1-166); experiment: Zn; HEK293T, RT-qPCR 3 days after transfection
# Sequence of ZIM3 reprogrammed with array DPH1_15 F3-8 (Q96PE6 other isoform, or with tags, fused parts or gaps): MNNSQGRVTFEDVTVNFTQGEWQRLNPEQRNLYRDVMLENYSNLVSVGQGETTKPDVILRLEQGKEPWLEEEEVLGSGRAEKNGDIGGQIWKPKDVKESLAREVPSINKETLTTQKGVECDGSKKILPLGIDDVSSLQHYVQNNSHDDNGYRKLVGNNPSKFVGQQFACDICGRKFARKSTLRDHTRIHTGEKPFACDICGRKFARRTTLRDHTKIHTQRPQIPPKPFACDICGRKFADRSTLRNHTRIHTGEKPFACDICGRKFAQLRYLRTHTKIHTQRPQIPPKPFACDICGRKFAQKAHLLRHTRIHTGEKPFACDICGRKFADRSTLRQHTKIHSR
# [19] = molecular target: ZIM3 reprogrammed with array DPH1_15 F1-6 (synthetic construct, UniProt Q96PE6 1-166); experiment: Zn; HEK293T, RT-qPCR 3 days after transfection
# Sequence of ZIM3 reprogrammed with array DPH1_15 F1-6 (Q96PE6 other isoform, or with tags, fused parts or gaps): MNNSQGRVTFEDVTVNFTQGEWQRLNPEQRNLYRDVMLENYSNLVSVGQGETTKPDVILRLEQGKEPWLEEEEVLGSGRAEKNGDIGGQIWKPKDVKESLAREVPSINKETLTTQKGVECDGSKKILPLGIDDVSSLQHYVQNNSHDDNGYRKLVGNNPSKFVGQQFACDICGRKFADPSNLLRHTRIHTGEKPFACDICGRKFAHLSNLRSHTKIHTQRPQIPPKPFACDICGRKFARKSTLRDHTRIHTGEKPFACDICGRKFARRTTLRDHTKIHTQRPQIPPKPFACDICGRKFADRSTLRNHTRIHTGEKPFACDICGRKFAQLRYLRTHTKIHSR
# [20] = molecular target: ZIM3 reprogrammed with array DPH1_15 (synthetic construct, UniProt Q96PE6 1-166); experiment: Zn; HEK293T, RT-qPCR 3 days after transfection
# Sequence of ZIM3 reprogrammed with array DPH1_15 (Q96PE6 other isoform, or with tags, fused parts or gaps): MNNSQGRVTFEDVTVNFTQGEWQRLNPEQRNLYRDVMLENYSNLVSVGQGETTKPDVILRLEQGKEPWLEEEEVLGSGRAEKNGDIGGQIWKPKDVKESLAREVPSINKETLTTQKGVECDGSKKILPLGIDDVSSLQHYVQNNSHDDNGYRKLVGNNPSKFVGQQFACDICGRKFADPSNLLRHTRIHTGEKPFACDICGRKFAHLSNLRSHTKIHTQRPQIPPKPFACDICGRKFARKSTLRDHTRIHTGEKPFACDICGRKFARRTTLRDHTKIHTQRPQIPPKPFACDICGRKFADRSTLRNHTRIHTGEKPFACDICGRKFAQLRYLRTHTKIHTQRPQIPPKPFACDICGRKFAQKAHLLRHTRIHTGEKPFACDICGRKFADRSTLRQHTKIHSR
# [21] = molecular target: ZIM3 reprogrammed with array DPH1_15 F1-8 Q (synthetic construct, UniProt Q96PE6 1-166); experiment: Zn; HEK293T, RT-qPCR 3 days after transfection
# Sequence of ZIM3 reprogrammed with array DPH1_15 F1-8 Q (Q96PE6 other isoform, or with tags, fused parts or gaps): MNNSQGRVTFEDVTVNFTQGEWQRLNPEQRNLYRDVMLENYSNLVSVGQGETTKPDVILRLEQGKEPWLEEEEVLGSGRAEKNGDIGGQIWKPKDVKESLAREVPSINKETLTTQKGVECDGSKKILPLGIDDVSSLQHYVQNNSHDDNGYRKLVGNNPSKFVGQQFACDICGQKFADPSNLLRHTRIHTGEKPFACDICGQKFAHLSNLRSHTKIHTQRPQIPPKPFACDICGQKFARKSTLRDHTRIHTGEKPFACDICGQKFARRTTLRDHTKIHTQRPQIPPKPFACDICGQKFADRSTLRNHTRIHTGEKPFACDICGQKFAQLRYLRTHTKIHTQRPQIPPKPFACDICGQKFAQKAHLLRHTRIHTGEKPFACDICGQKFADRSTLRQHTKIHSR
binder,measurement,setting,value
UBE4A T1F8 (dsDNA) DNA 1: GCTGCTGGCACTTCAGGCTCTGGTAAGA DNA 2: TCTTACCAGAGCCTGAAGTGCCAGCAGC,binding signal,[1],"~0.57 relative expression (lower = more activity, repressor)"
eGFP site 18 (8 fingers) (dsDNA) DNA 1: GCAGCACGACTTCTTCAAGTCCGCCATGCCCGAA DNA 2: TTCGGGCATGGCGGACTTGAAGAAGTCGTGCTGC,binding signal,[2],~70 % GFP-negative cells (higher = more activity)
same,binding signal,[3],~47 % GFP-negative cells (higher = more activity)
DPH1TSSR (dsDNA) DNA 1: CCTGCCTGCGCATGTGGTACTAAAAAGA DNA 2: TCTTTTTAGTACCACATGCGCAGGCAGG,binding signal,[4],"~0.58 relative expression (lower = more activity, repressor)"
CDK125RC (dsDNA) DNA 1: GCGGCCCGGCCCCCGCGCACCGCCCATTGGC DNA 2: GCCAATGGGCGGTGCGCGGGGGCCGGGCCGC,binding signal,array CDKN1C 125RC,~2.2 log2 fold change (RNA-seq) (higher = more activity)
eGFP site 10 (8 fingers) (dsDNA) DNA 1: TACGGCAAGCTGACCCTGAAGTTCATCTGCACCA DNA 2: TGGTGCAGATGAACTTCAGGGTCAGCTTGCCGTA,binding signal,[5],~59 % GFP-negative cells (higher = more activity)
same,binding signal,[6],~38 % GFP-negative cells (higher = more activity)
same,binding signal,[7],~28 % GFP-negative cells (higher = more activity)
UBE4A T1R8 (dsDNA) DNA 1: TGTCTTACCAGAGCCTGAAGTGCCAGCA DNA 2: TGCTGGCACTTCAGGCTCTGGTAAGACA,binding signal,[8],"~0.22 relative expression (lower = more activity, repressor)"
DPH1T2F8 (dsDNA) DNA 1: CTGGTCGTATCCGGGGCAGCGGAGCAGG DNA 2: CCTGCTCCGCTGCCCCGGATACGACCAG,binding signal,[9],"~0.67 relative expression (lower = more activity, repressor)"
eGFP site 12 (8 fingers) (dsDNA) DNA 1: GAAGTTCATCTGCACCACCGGCAAGCTGCCCGTG DNA 2: CACGGGCAGCTTGCCGGTGGTGCAGATGAACTTC,binding signal,[10],~65 % GFP-negative cells (higher = more activity)
same,binding signal,[11],~24 % GFP-negative cells (higher = more activity)
same,binding signal,[12],~58 % GFP-negative cells (higher = more activity)
CDKN1C_200 (dsDNA) DNA 1: TTGAAACTGAAAATACTACATTATGCTA DNA 2: TAGCATAATGTAGTATTTTCAGTTTCAA,binding signal,[13],~17 relative expression (higher = more activity)
same,binding signal,[14],~3.2 relative expression (higher = more activity)
same,binding signal,[15],~11 relative expression (higher = more activity)
Rab1a T2R8 (dsDNA) DNA 1: CTACTCCGTCCCCTAGAACACAATCAGC DNA 2: GCTGATTGTGTTCTAGGGGACGGAGTAG,binding signal,[16],"~0.41 relative expression (lower = more activity, repressor)"
DPH1T2R8 (dsDNA) DNA 1: CTGCTCCGCTGCCCCGGATACGACCAGC DNA 2: GCTGGTCGTATCCGGGGCAGCGGAGCAG,binding signal,[17],"~0.77 relative expression (lower = more activity, repressor)"
DPH1_15 (dsDNA) DNA 1: CCCGGATACGACCAGCGCCGCCATCACC DNA 2: GGTGATGGCGGCGCTGGTCGTATCCGGG,binding signal,[18],"~0.12 relative expression (lower = more activity, repressor)"
same,binding signal,[19],"~0.62 relative expression (lower = more activity, repressor)"
same,binding signal,[20],"~0.13 relative expression (lower = more activity, repressor)"
same,binding signal,[21],"~0.67 relative expression (lower = more activity, repressor)"
